For the experiment, the target named is active 62 kDa MMP-2 (UniProt P08253). In words: fluorometric MMP-2 activity assay, competitive inhibition fit; TIMP-2 0-2.5 nM, substrate 0.83-6.66 µM.
Chain of active 62 kDa MMP-2 (P08253 110-660 limits assumed): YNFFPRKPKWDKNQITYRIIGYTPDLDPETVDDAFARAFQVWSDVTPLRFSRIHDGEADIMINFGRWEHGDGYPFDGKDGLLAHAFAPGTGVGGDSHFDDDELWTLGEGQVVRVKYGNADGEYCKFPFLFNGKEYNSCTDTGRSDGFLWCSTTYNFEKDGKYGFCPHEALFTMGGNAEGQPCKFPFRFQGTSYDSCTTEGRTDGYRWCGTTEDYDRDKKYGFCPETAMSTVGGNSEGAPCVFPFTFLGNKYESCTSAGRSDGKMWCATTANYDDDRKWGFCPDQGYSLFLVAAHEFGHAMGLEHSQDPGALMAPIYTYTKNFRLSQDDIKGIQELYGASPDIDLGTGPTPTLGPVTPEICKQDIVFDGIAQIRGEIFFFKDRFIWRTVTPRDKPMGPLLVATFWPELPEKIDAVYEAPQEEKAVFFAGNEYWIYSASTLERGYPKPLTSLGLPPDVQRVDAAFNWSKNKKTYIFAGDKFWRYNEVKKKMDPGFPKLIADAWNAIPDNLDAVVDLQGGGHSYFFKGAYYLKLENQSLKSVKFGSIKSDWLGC

Chain of wild type human TIMP-2 with C-terminal His6 tag (WT TIMP-2-His6) (P16035 other isoform, or with tags, fused parts or gaps): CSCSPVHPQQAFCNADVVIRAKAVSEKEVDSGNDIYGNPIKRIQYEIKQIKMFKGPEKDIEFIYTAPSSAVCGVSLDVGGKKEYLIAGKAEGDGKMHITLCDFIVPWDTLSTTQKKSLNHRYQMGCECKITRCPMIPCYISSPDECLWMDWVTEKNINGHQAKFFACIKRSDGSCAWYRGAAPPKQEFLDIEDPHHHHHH

A word on the Ki: it is the dissociation constant of the complex between target and ligand, obtained from inhibition or displacement. A low value points to higher affinity. Substance “TIMP-2 Y90E-His6 (from UniProt P16035 27-220)” had a Ki of 0.3 nM.
With “TIMP-2 Y90F-His6 (from UniProt P16035 27-220)” the figure was 1.4 nM; with “wild type human TIMP-2 with C-terminal His6 tag (WT TIMP-2-His6) (from UniProt P16035 27-220)”, 1.5 nM.

These data come from US20190322724A1.
